± gives the standard deviation.
Assay: protein stability index of a GFP-peptide fusion (GPS, HEK-293T) (PSI 1-6); higher = more stable
Details: c terminus: a fixed tail appended
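Further: 24-mer peptide tiles fused after GFP, lentivirally expressed, FACS-sorted into six equal bins by GFP/DsRed ratio, decoded by Illumina sequencing, PSI is the read-weighted mean bin number.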

| Sequence | protein stability index (treatment: DMSO) | protein stability index (treatment: MLN4924 1 uM, 8 h) |
| --- | --- | --- |
| PLPTDPMLGLALGGLVVSAASLAG [TSPAN10] | 2.96 ± 0.63 | 2.65 ± 0.63 |
| PLPVSADDTPEVLNRALSNLSSRW [CDS2] | 3.82 ± 0.17 | 3.83 ± 0.19 |
| PLQGTDEDAVASADFSSMLSEEEK [TPD52L1] | 5.48 ± 0.58 | 5.69 ± 0.094 |
| PLRERARKLSQGILIIRFEMPYNI [YJU2B] | 2.9 ± 0.7 | 2.62 ± 0.39 |
| PLTFDKNENMAAKKKSVAMHTNYL [GNB5] | 3.33 ± 0.26 | 3.46 ± 0.26 |
| PMAEYNMPQYILREFKVTDARDGQ [PTPRD] | 3.8 ± 0.24 | 3.75 ± 0.27 |
| PNAFIGSDVVDWLYHNVEGFTDRR [DVL3] | 3.13 ± 0.26 | 3.15 ± 0.32 |
| PNLSLASEDEEEYESGYAFLPDLL [SMG5] | 4.32 ± 0.2 | 4.47 ± 0.15 |
| PPVPCVPSVPCTPAPQVGTQIRTI [KRT36] | 4.46 ± 0.22 | 4.31 ± 0.2 |
| PQQAPQDDGSQDPEVLDRESRDRP [PWWP2B] | 5.63 ± 0.29 | 5.47 ± 0.14 |
| PQVLSQEFTELLKVMIHPDPERRP [WEE1] | 3.45 ± 0.17 | 3.43 ± 0.16 |
| PRCPRMVLSLKEGAREEDLDAVEA [FBXO3] | 5.32 ± 0.36 | 5.27 ± 0.17 |
| PRGKPPLNTRSQAPLLRWVLTLSF [HMOX1] | 2.81 ± 0.28 | 3.1 ± 0.61 |
| PRGSETERLLTPNPGYGTQAGPSP [MCOLN1] | 4.41 ± 0.18 | 4.79 ± 0.28 |
| PRHPIRALVGDEVELPCRISPGKN [MOG] | 4.62 ± 0.17 | 4.72 ± 0.21 |
| PSDKMKWCLRVNPKGLDDESKDYL [SPOPL] | 3.22 ± 0.34 | 3.81 ± 0.47 |
| PSEHVQGKSPVNMVTVAMVAGQCE [ZNF649] | 4.14 ± 0.34 | 4.26 ± 0.14 |
| PSFHPHAGGGSQENLDNDTETDSL [DVL3] | 5.58 ± 0.31 | 5.5 ± 0.29 |
| PSLPAAGEQDCCGERVVINISGLR [KCNA3] | 3.79 ± 0.36 | 3.76 ± 0.29 |
| PSSFPSSSSSSSSSCYPLIPSTPE [MAGEA10] | 4.32 ± 0.36 | 4.45 ± 0.13 |
| PSSLSSSEGSSSSSSSSSSSSSSA [NFE2L1] | 5.51 ± 0.22 | 5.47 ± 0.12 |
| PSTTERISTSGQAGTSSHGCWAWP [PXN] | 3.04 ± 0.21 | 3.17 ± 0.23 |
| PTHTPRPADFSLGSLPGPGQTSGA [VENTX] | 4.44 ± 0.18 | 4.5 ± 0.2 |

| Sequence | protein stability index (treatment: DMSO) | protein stability index (treatment: MLN4924 1 uM, 8 h) |
| --- | --- | --- |
| PTQQDVLRTRVKTTGIVETHFTFK [GNAI1] | 3.05 ± 0.42 | 3.51 ± 0.37 |
| PVSCCLGLLLESLVPFIVNDNITN [DYNC2LI1] | 2.57 ± 0.94 | 2.79 ± 0.58 |
| PWLCGESFTLADVSLAVTLHRLKF [GDAP1] | 2.65 ± 0.43 | 2.35 ± 0.41 |
| PYGVYKKQQKDPSEEAAVLQYASL [ATE1] | 3.62 ± 0.23 | 3.8 ± 0.5 |
| QAAKLLGSMEQVSSHFLEQTLDKK [INTS4] | 3.78 ± 0.12 | 3.88 ± 0.36 |
| QALQHVQASCDEAHKMKFSDLFSL [INTS3] | 2.86 ± 0.39 | 2.95 ± 0.33 |
| QASEREAPSIEQRLQEVRESIRRA [FCHSD1] | 5.06 ± 0.35 | 5 ± 0.31 |
| QCGETMKETVNVKTVCGYYTSAGT [GMCL1] | 3.7 ± 0.22 | 3.77 ± 0.28 |
| QDACQAQAREKELLELQSQQACTH [CCDC89] | 4.91 ± 0.29 | 4.9 ± 0.2 |
| QDEPRQGCQPEDRRRRIIINVGGI [KCNG1] | 3.92 ± 0.33 | 4.02 ± 0.2 |
| QEEAIAQFPYVEFTGRDSITCLTC [TMEM106C] | 2.5 ± 0.21 | 2.57 ± 0.24 |
| QESYENVDSLESHIPSQEVPGTQV [ZNF263] | 5.42 ± 0.22 | 5.28 ± 0.22 |
| QGKLIKRQRLAKNDRGDHYHWKDL [EFHC1] | 3.36 ± 0.48 | 3.71 ± 0.31 |
| QGPPMVPPYQGGPPRPPMGMRPPV [ZNF207] | 4.31 ± 0.12 | 4.18 ± 0.081 |
| QGSRGLTDQAIFYAVTPLPWCPHL [HDAC6] | 2.64 ± 0.66 | 2.41 ± 0.46 |
| QHKDQTAALPLAAEETANLPPSPP [MAP2] | 5.49 ± 0.086 | 5.45 ± 0.12 |
| QIEYEYKLAQALHEMREQHDAQVR [LMNB1] | 3.83 ± 0.38 | 3.83 ± 0.34 |
| QIFFGRRKDMIAEKLAPSEITEEL [ZNF396] | 3.85 ± 0.14 | 3.74 ± 0.13 |
| QIKAIRGSNEYTEGPSVVKRPAPR [SPRY1] | 4.05 ± 0.09 | 4.47 ± 0.3 |
| QKILCAKAENARLVVNIDNAKLAS [KRT34] | 3.49 ± 0.2 | 3.56 ± 0.11 |
| QLGTLAGSKYYNVEAMYCYLRCIQ [SMG5] | 2.68 ± 0.29 | 2.3 ± 0.41 |
| QLKIAANPFAKGFRENGRNCKRER [TBX6] | 3.33 ± 0.25 | 3.47 ± 0.33 |
| QLQHEKAELEQHLEQEQEFQVNKL [CCDC6] | 5.35 ± 0.19 | 5.41 ± 0.24 |

| Sequence | protein stability index (treatment: DMSO) | protein stability index (treatment: MLN4924 1 uM, 8 h) |
| --- | --- | --- |
| QLSELRSEMECQNQEYKMLLDIKT [KRT13] | 4.09 ± 0.12 | 4 ± 0.29 |
| QMKQKVQSLYQEVFGRLRDENGRP [NFE2L1] | 2.66 ± 0.35 | 3.65 ± 0.48 |
| QNIYKCIMLKNISQDERLDVLLTL [IQUB] | 2.5 ± 0.098 | 2.61 ± 0.51 |
| QNSRNKRAVQGPEETVTQDCLQLI [TNFSF13B] | 4.55 ± 0.057 | 4.68 ± 0.12 |
| QPCNPPAPAGDKGFQPPSPSLRPR [DMRTC1] | 5.27 ± 0.14 | 5.15 ± 0.19 |
| QPKKPEDEPQETAYRTQVSSCCLH [PKD2L1] | 4.88 ± 0.27 | 4.96 ± 0.05 |
| QPLEVKNNSNLQRMGSSESTDSGF [CDC25A] | 5.28 ± 0.23 | 5.06 ± 0.49 |
| QPPLSATVTLTVAVADSIPQVLAD [PCDHGA10] | 2.56 ± 0.24 | 2.7 ± 0.36 |
| QQAMSLAILRVIRLVRVFRIFKLS [KCNA3] | 2.69 ± 0.26 | 2.63 ± 0.44 |
| QQEVVVAGSSLPTSSKVNATVPSN [ACBD3] | 5.12 ± 0.34 | 4.98 ± 0.23 |
| QQIEEQRVQVQVVERAQQVAVQEQ [FLOT1] | 5.17 ± 0.41 | 5.03 ± 0.32 |
| QQVDTNISVILPTVHEVDIFRCFC [DENND6A] | 1.98 ± 0.31 | 2.24 ± 0.47 |
| QRKKWVDLAWMITFYVRFFLTYVP [FADS1] | 2.79 ± 0.29 | 2.83 ± 0.44 |
| QRLLFSGASDNSIIMWDIGGRKGR [WDFY1] | 3.16 ± 0.55 | 3.39 ± 0.46 |
| QSLLQPKSSSVDSELTSLCQSVLE [SMG5] | 3.88 ± 0.26 | 3.94 ± 0.21 |
| QSPTLEFLLRNSQRTVGQLMELCR [EDARADD] | 2.49 ± 0.21 | 2.56 ± 0.26 |
| QTEKLDTNITEVDAASVYTLPAGA [CASP6] | 5.02 ± 0.2 | 4.81 ± 0.12 |
| QTEPQDRSPAPMSCDKSTQTPSPP [BCL2L11] | 5.58 ± 0.14 | 5.38 ± 0.23 |
| QTPEQYYFCYKAILEFAEKEGMVS [PTPN9] | 2.12 ± 0.47 | 2.22 ± 0.35 |
| QTRMAVSLTAAETLALQGTQGQEK [ZNF232] | 5.15 ± 0.24 | 4.98 ± 0.21 |
| QVADINDNPPTFSQVSYFTYIPEN [PCDHGA10] | 2.98 ± 0.32 | 3.09 ± 0.3 |
| QVKFGQQNPRQVAQSEAEKKLKKD [ZC3H15] | 5.37 ± 0.25 | 5.37 ± 0.076 |
| QVMVSGPNLNETSIVSGGYGGSGD [ARFIP2] | 4.24 ± 0.29 | 4.41 ± 0.41 |

| Sequence | protein stability index (treatment: DMSO) | protein stability index (treatment: MLN4924 1 uM, 8 h) |
| --- | --- | --- |
| QVQSLITNVESQLAEIRCDLERQN [KRT34] | 3.43 ± 0.21 | 3.66 ± 0.33 |
| RAARDYKIQNHGHRVLQRLEQRRQ [FCHSD1] | 3.82 ± 0.079 | 4.07 ± 0.26 |
| RAEQDSEVGPQEINKEELEGNSMR [GMCL1] | 5.6 ± 0.26 | 5.63 ± 0.14 |
| RAQMIRNEYRKLHPVLHKEEKQHL [TRIM43] | 3 ± 0.37 | 3.73 ± 0.2 |
| RDVALQIHFTLIQAFCCENDINIL [GADD45A] | 2.92 ± 0.52 | 2.94 ± 0.59 |
| REEERPLPRRDFQRQVWLLFEYPE [KCNA3] | 2.64 ± 0.43 | 2.67 ± 0.37 |
| RELEEYRREVERKQKGSEENLDEA [ADD1] | 5.57 ± 0.24 | 5.61 ± 0.17 |
| REPPQAVSIKEAAGSSNLPAPERT [VENTX] | 5.26 ± 0.3 | 5.2 ± 0.54 |
| REPVTKAEMLGSVVGNWQYFFPVI [MAGEA3] | 2.17 ± 0.18 | 2.25 ± 0.27 |
| RETYPRTPYVRWNYVAKNFAQALG [SOAT2] | 2.34 ± 0.34 | 2.17 ± 0.38 |
| RFNRIGLPPKVGSFQLFVEGYKDA [PI4K2A] | 2.39 ± 0.29 | 2.77 ± 0.51 |
| RFSSGGACGLGGGYGGGFSSSSSF [KRT16] | 2.38 ± 0.64 | 2.1 ± 0.35 |
| RFVPSNPIGILTTSYCELLQNKVP [PPTC7] | 2.57 ± 0.29 | 2.51 ± 0.18 |
| RGFQEENKALWENNKLKLQQKLVI [CBY2] | 3 ± 0.29 | 3.15 ± 0.43 |
| RGNHESRQITQVYGFYDECLRKYG [PPP2CA] | 2.75 ± 0.4 | 2.59 ± 0.19 |
| RGNPELARLRPGLAVLGADERIFS [HAGHL] | 3.42 ± 0.47 | 3.65 ± 0.14 |
| RGRYRQYNSEILEEAISVVMSGKM [LCOR] | 2.54 ± 0.23 | 2.71 ± 0.29 |
| RHLDFHVKDLIKKLLVVDRTRRLG [PRKX] | 2.57 ± 0.042 | 2.41 ± 0.36 |
| RIFAQYMVPHNLETTERMKCLYYL [PDS5B] | 2.91 ± 0.62 | 2.36 ± 0.43 |
| RIPGAWSCAWSLNIQANNCFSTGL [DCAF4] | 2.76 ± 0.94 | 2.69 ± 0.6 |

From the supplement of paper PMC10567573
